In patent US20190060324A1, “POLYNUCLEOTIDE-POLY(DIOL) CONJUGATES, PROCESS OF PREPARATION AND USES THEREOF” (THE ROYAL INSTITUTION FOR THE ADVANCEMENT OF …, priority 2014, published 2019):

What was measured:
[1] = Fluorescence of encapsulated Nile Red; type: physicochemical; conditions: conjugate 10 μM in TAMg, excitation 535 nm
Experimental: DNA-conjugates (10 μM) in TAMg buffer (60 μL) were thermally annealed (95 to 4° C., 4 hours). The samples were transferred to glass vials and 1.5 μL of Nile Red solution ([…], acetone) was added, to give a final Nile Red concentration of 2.5 μM. The samples were vortexed briefly, sealed and incubated overnight at room temperature in the absence of light. Fluorescence spectra were recorded at room temperature in a 50 μL quartz cuvette using an excitation wavelength of 535 nm, and monitoring emission between 560 and 750 nm, with excitation and emission slit widths both set at 10 nm.
The sequence-specific self-assembly was also assessed using encapsulation of Nile Red (FIG. 5). In this case a small increase in fluorescence was seen as the block size increased from one to three HE units, consistent with a degree of intramolecular collapse of adjacent HE units, generating progressively larger hydrophobic domains as the block size increases, akin to beads on a string. […] A small, but repeatedly measurable, […] of the maximum emission from the bola-amphiphile (640 nm) with respect to the linear amphiphile (645 nm) was also observed, which is indicative of Nile Red in a more polar environment P. Greenspan, S. D. Fowler, J. Lipid Res. 1985, 26, 781-789). […]

[2] = Dynamic light scattering of DNA-conjugate micelles (hydrodynamic radius, self-assembly); type: physicochemical; conditions: 25° C.; for Single-stranded Rh (hydrodynamic radius by DLS): 10 μM in TAMg buffer; for Single-stranded Rh (hydrodynamic radius by DLS) / Double-stranded Rh (hydrodynamic radius by DLS): mean of at least triplicate ± SD; for self-assembly / scattering by DLS: 10 μM in magnesium containing (TAMg) buffer
Experimental: The conjugates described herein can be further characterized with regard to their self-assembly behavior. To probe the self-assembly in solution, dynamic light scattering (DLS) was used to determine the presence, and hydrodynamic radius, of micellar aggregates.
Dynamic Light Scattering (DLS) experiments were carried out using a DynaPro™ Instrument from Wyatt Technology. A cumulants fit model was used to confirm the presence and determine the size of a monomodal population of micellar aggregates. Sterile water and TAMg buffer were filtered using a 0.45 μm nylon syringe filter before use for DLS sample preparation. All measurements were carried out at 25° C.
This size correlates with DNA-based spherical micelles and is consistent with the tight packing of the HE chains in a hydrophobic core with a charged corona made up of DNA.
To investigate the effect of block pattern on the amphiphilic self-assembly in solution, DLS measurements were carried out for the HE/HEG series. Samples were annealed in TAMg buffer at 10 μM, and measured at 25° C. […] Furthermore, the effect of the positioning of the blocks with respect to the oligonucleotide portion also appears to be a major factor in the self-assembly: the terminal HE6 results in micellization, whereas a central HE6 block prevents aggregation.

[3] = BKM120 loading of HE12-DNA micelles by RP-HPLC and UV-Vis; type: physicochemical; conditions: HPLC peak areas, standard curves
Experimental: BKM120 was prepared as a 10 mM working solution in chloroform. Loading of the structures was achieved by adding 20 μL of BKM120 to a glass vial, followed by solvent evaporation in open air to achieve a thin drug film. HE12-DNA micelles were pre-assembled in 1×TAMg (100 μL at […]) and subsequently added to the drug film. The final solution was 100 μL with excess BKM120 (2 mM). The mixture was vortexed heavily to allow re-suspension of the drug molecules, and was incubated overnight at room temperature. Alternatively, drug loading could also be obtained by a different method. […]
RP-HPLC and UV-Vis spectroscopy were used to determine the amount of BKM120 loaded in the DNA micelles, For HPLC, 60 μL of the purified supernatant was injected into a Hamilton PRP-1 5 μm 100 Å 2.1×150 mm column. […] The products were also detected using a drug-only channel at 320 nm (BKM 120 maximum absorption peak).
For UV-Vis spectroscopy experiments, 20 μL of the purified supernatant was mixed with 80 μL of DMSO, and the absorbance (200 nm-500 nm) was measured. The presence of BKM120 was monitored by the absorbance at 320 nm using a Biotek Synergy HT well-plate spectrometer. […]
The amount of incorporated BKM 120 was calculated by measuring HPLC peak areas of BKM 120 and DNA. […]

[4] = test system: complement strand (Acomp); assay: Thermal denaturation of duplexes with complement strand by UV absorption; native PAGE; type: physicochemical; conditions: between DNA and HE12-DNA, duplex with Acomp 2.5 μM in TAMg
Experimental: The hybridization of the DNA amphiphiles to their complement strands was confirmed by measurement of the thermal denaturation of the duplexes by UV absorption. For each experiment equimolar amounts of DNA amphiphile and complement strand (Acomp, see Table 1) were combined in TAMg buffer to give a final volume of 150 μL with a duplex concentration of 2.5 μM. Samples were thermally annealed (95 to 4° C., 4 hours) before transfer to a quartz cuvette. Absorbance at 260 nm was monitored over the appropriate temperature range. Typical sigmoidal melting curves were obtained for the hybridization of the complementary strand Acomp to DNA control, discrete (HE-HEG)6-DNA and HE12-DNA micelles. […] Native Polyacrylamide Gel Electrophoresis (PAGE) was carried out at room temperature for 2 hours at a constant voltage of 250V. Sample loading was 0.01 OD260 DNA per lane. Single-stranded samples were annealed (95 to 4° C., 4 hours) prior to loading on the gel to promote uniform assembly. Double-stranded samples were similarly annealed (with Acomp, see Table 1) to provide 25 μL of 10 μM duplex in 1×TAMg. The DNA bands were visualized by incubation with GelRedTM. Thermal denaturation and gel electrophoresis concluded that all of the HEx-DNA molecules retained their ability to hybridize to a complementary DNA strand, highlighting the orthogonal nature of these differing modes of intermolecular self-assembly. […]

[5] = test system: primary B-CLL lymphocytes; assay: Cleaved caspase-3 apoptosis assay; type: cell-based, human; conditions: primary patient CLL cells, 24 and 48 h
Experimental: Primary B-CLL lymphocytes were maintained in RPMI complemented with 10% fetal bovine serum (FBS). BMS2 stromal cell line were maintained in Dulbecco's modified eagle medium (DMEM) supplemented with 10% FBS.BMS2 cells were plate at 70×10^4 cells/ml in 24 well plates before coculture with primary B-CLL lymphocytes and incubate at 37° C., 5% C02.
For apoptosis assays, 3×10^6 B-CLL lymphocytes were plated in the presence or absence of stromal cell (BMS2) and incubate 1 h at 37° C., 5% CO2. Cells were then treated with vehicle, micelle, BKM120, and micelle encapsulated BKM120 for 24 and 48 h.
Cells were harvested, washed with PBS then fixed 10 min with 1% paraformaldehyde. After washing, cells were permeabilized and nonspecific sites blocked in PBS containing 3% FBS and 0.01% triton X100. Cells were then incubated 1 h with an anti-caspase-3 FITC conjugated antibody then analyzed with a FACSCalibur flow cytometer. (See FIG. 16).

[6] = test system: HeLa cells (human cervical cancer); assay: MTS cytotoxicity assay; type: cell-based; conditions: quadruplicate, read-out: inhibitory concentration (IC50), MTS assay
Experimental: The cytotoxicity of micelles was assessed using the CellTiter96 kit from Promega according to the manufacturer's instructions. Briefly, HeLa cells (human cervical cancer) were seeded at a density of 10000 cells per well in a 96-well plate in DMEM media (Invitrogen) supplemented with 10% FBS and AB/AM. […] Cells were incubated for 24, 48, and 72 h in 5% CO2 at 37° C. After the incubation period, the MTS reagent was added to each well and further incubated for 2 h in 5% CO2 at 37° C. Subsequently, 96-well plates were allowed to equilibrate at room temperature and the absorbance was read at 490 nm using a BioTek Epoch micro-plate reader. All quantifications were done using GraphPad Prism 5 software.

| Compound | Single-stranded Rh (hydrodynamic radius by DLS) [2] [nm] | self-assembly / scattering by DLS [2] | Double-stranded Rh (hydrodynamic radius by DLS) [2] [nm] | also measured |
| --- | --- | --- | --- | --- |
| HEG6-HE6-DNA: HHHHHHDDDDDDTTTTTCAGTTGACCATATA; D dodecane-diol, H hexaethyloxy glycol residues (dodecane-diol and hexaethylene glycol units conjugated, chemistry not fully specified) |  |  |  | maximum emission of encapsulated Nile Red [1]: 640 nm |
| HE6-DNA: DDDDDDTTTTTCAGTTGACCATATA; D = residue from DMT-dodecane-diol amidite (dodecane-diol (HE) units conjugated, chemistry not fully specified) | 6.5±0.4 | strong scattering | 5.6 ± 0.1 | Single-stranded Rh (hydrodynamic radius by DLS) ([2]; listed as HE6): 6.5 ± 0.4 nm |
| HE6-HEG6-DNA: DDDDDDHHHHHHTTTTTCAGTTGACCATATA; D dodecane-diol, H hexaethyloxy glycol residues (dodecane-diol and hexaethylene glycol units conjugated, chemistry not fully specified) | 9.7±0.9 | strong scattering | 10.0 ± 0.2 | maximum emission of encapsulated Nile Red [1]: 645 nm; Single-stranded Rh (hydrodynamic radius by DLS) ([2]; listed as HE6-HEG6): 9.7 ± 0.1 nm |
| HE12-DNA: DDDDDDDDDDDDTTTTTCAGTTGACCATATA; D = residue from DMT-dodecane-diol amidite (dodecane-diol (HE) units conjugated, chemistry not fully specified) | 11.3±0.1 |  | 11.3 ± 0.1 | BKM120 molecules incorporated per HE12-DNA conjugate unit [3]: 8; Single-stranded Rh (hydrodynamic radius by DLS) ([2]; listed as HE12): 11.3 ± 0.7 nm; change in melting temperature [4]: 3 °C |
| (HE2-HEG2)3-DNA: DDHHDDHHDDHHTTTTTCAGTTGACCATATA; D dodecane-diol, H hexaethyloxy glycol residues (dodecane-diol and hexaethylene glycol units conjugated, chemistry not fully specified) |  | did not exhibit self-assembly |  |  |
| Nc1cc(C(F)(F)F)c(-c2cc(N3CCOCC3)nc(N3CCOCC3)n2)cn1 [BKM120] |  |  |  | amount of caspase (cleaved caspase-3) [5]: same amount; IC50 [6]: 2000 nM |
| (HE-HEG)6-DNA: DHDHDHDHDHDHTTTTTCAGTTGACCATATA; D dodecane-diol, H hexaethyloxy glycol residues (dodecane-diol and hexaethylene glycol units conjugated, chemistry not fully specified) |  | did not exhibit self-assembly |  |  |
| (HE3-HEG3)2-DNA: DDDHHHDDDHHHTTTTTCAGTTGACCATATA; D dodecane-diol, H hexaethyloxy glycol residues (dodecane-diol and hexaethylene glycol units conjugated, chemistry not fully specified) |  | did not exhibit self-assembly |  |  |
